Data: publication PMC9666628 (Nature Communications, 2022)
Numbering of substitutions follows the chain as printed. Several values for one entry are separate records, joined by “and”; a condition that tells them apart may be missing. Equal entries are not always repeated.

T1: Cbx7.V1 back-mutant D8E (human, UniProt O95931 7-66, Q9D | V10I (printed as the back-mutation I10V) | K33E | P37L (printed as the …))
T1 construct: chromodomain of human Cbx7, variant V1 with residue 8 put back to the wild type; residues numbered on full-length Cbx7; Tags probably still on the protein in BLI (removal is told for FP and ITC only); source: E. coli BL21(DE3), purified (Ni-NTA)
T1 sequence: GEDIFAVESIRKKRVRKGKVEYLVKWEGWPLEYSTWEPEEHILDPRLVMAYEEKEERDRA

T2: Cbx7.V1 back-mutant L37P (human, UniProt O95931 7-66, E8D (printed as the back-mutation D8E) | Q9D | V10I (printed as the …))
T2 construct: chromodomain of human Cbx7, variant V1 with residue 37 put back to the wild type; residues numbered on full-length Cbx7; Tags probably still on the protein in BLI (removal is told for FP and ITC only); source: E. coli BL21(DE3), purified (Ni-NTA)
T2 sequence: T1 sequence with E2D, L31P

T3: Cbx7.V1 back-mutant D9Q (human, UniProt O95931 7-66, E8D (printed as the back-mutation D8E) | V10I (printed as the back-mutation …))
T3 construct: chromodomain of human Cbx7, variant V1 with residue 9 put back to the wild type; residues numbered on full-length Cbx7; Tags probably still on the protein in BLI (removal is told for FP and ITC only); source: E. coli BL21(DE3), purified (Ni-NTA)
T3 sequence: T1 sequence with E2D, D3Q

T4: Cbx7.V1 back-mutant E38K (human, UniProt O95931 7-66, E8D (printed as the back-mutation D8E) | Q9D | V10I (printed as the …))
T4 construct: chromodomain of human Cbx7, variant V1 with residue 38 put back to the wild type; residues numbered on full-length Cbx7; Tags probably still on the protein in BLI (removal is told for FP and ITC only); source: E. coli BL21(DE3), purified (Ni-NTA)
T4 sequence: T1 sequence with E2D, E32K

T5: Cbx7.V1 chromodomain variant (protein used for BLI) (human, UniProt O95931 7-66, E8D (printed as the back-mutation D8E) | Q9D | V10I (printed as the …))
T5 construct: chromodomain of human Cbx7 with the six substitutions of the phage-selected variant V1; residues numbered on full-length Cbx7; for BLI they were probably still on the protein; source: E. coli BL21(DE3), purified (Ni-NTA)
T5 sequence: T1 sequence with E2D

T6: Cbx7.V1 back-mutant I10V (human, UniProt O95931 7-66, E8D (printed as the back-mutation D8E) | Q9D | K33E | P37L (printed as the …))
T6 construct: chromodomain of human Cbx7, variant V1 with residue 10 put back to the wild type; residues numbered on full-length Cbx7; Tags probably still on the protein in BLI (removal is told for FP and ITC only); source: E. coli BL21(DE3), purified (Ni-NTA)
T6 sequence: T1 sequence with E2D, I4V

T7: wild-type Cbx2 chromodomain (tags removed) (human, UniProt Q14781 9-62)
T7 construct: chromodomain of human Cbx2; also called Cbx2.wt; source: E. coli BL21(DE3), purified (Ni-NTA; tags removed with TEV protease)
T7 sequence: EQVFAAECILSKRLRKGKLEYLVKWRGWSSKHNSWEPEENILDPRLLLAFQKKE

T8: wild-type Cbx8 chromodomain (tags removed) (human, UniProt Q9HC52 8-61)
T8 construct: chromodomain of human Cbx8; also called Cbx8.wt; source: E. coli BL21(DE3), purified (Ni-NTA; tags removed with TEV protease)
T8 sequence: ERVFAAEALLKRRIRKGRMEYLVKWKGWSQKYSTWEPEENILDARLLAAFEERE

T9: wild-type Cbx7 chromodomain (tags removed) (human, UniProt O95931 7-66)
T9 construct: chromodomain of human Cbx7 (Cbx7-chromo), UniProt O95931; also called Cbx7.wt; source: E. coli BL21(DE3), purified (Ni-NTA; tags removed with TEV protease)
T9 sequence: T1 sequence with D3Q, I4V, E27K, L31P, E32K

T10: Cbx7 Q9D chromodomain (tags removed) (human, UniProt O95931 7-66, Q9D)
T10 construct: chromodomain of human Cbx7 (Cbx7-chromo), UniProt O95931; source: E. coli BL21(DE3), purified (Ni-NTA; tags removed with TEV protease)
T10 sequence: T1 sequence with I4V, E27K, L31P, E32K

T11: Cbx7 K33E chromodomain (tags removed) (human, UniProt O95931 7-66, K33E)
T11 construct: chromodomain of human Cbx7 (Cbx7-chromo), UniProt O95931; source: E. coli BL21(DE3), purified (Ni-NTA; tags removed with TEV protease)
T11 sequence: T1 sequence with D3Q, I4V, L31P, E32K

T12: Cbx7.VD chromodomain, Q9D/K33E (tags removed) (human, UniProt O95931 7-66, Q9D | K33E)
T12 construct: chromodomain of human Cbx7 (Cbx7-chromo), UniProt O95931; source: E. coli BL21(DE3), purified (Ni-NTA; tags removed with TEV protease)
T12 sequence: T1 sequence with I4V, L31P, E32K

T13: Cbx7.V1 (tags removed, used for FP and ITC) (human, UniProt O95931 7-66, E8D (printed as the back-mutation D8E) | Q9D | V10I (printed as the …))
T13 construct: chromodomain of human Cbx7 (Cbx7-chromo), UniProt O95931; source: E. coli BL21(DE3), purified (Ni-NTA; tags removed with TEV protease)
T13 sequence: T1 sequence with E2D

B1: Cbx6.VD chromodomain, Asp9/Glu33 (tags removed) (domain or fragment)
chain: GEDVFAAESIIKRRIRKGRIEYLVKWEGWAIKYSTWEPEENILDSRLIAAFEQKERERELYGP
B2: H3K27me3 peptide, biotinylated (peptide)
chain: KQLATKAARKSAPATGGVK
modifications: trimethyl-lysine at K27; biotin followed by an aminohexanoic acid linker at the N-terminus
B3: H3K9me3 peptide, N-terminal FITC (peptide)
chain: ARTKQTARKSTGGKAPR
modifications: trimethyl-lysine at K9; fluorescein isothiocyanate (FITC) at the N-terminus

What was measured:
Conditions in all cases: both partners purified
[1] = target: B3; test: fluorescence polarisation; 0.5 nM FITC-labelled peptide; chromodomains 200-0.2 µM (wild type) or 50 µM-50 nM (Cbx7.V1 and all Cbx.VDs); 30 min at 25 °C; 25 mM HEPES pH 7.5, 150 mM NaCl, 1 mM DTT, 0.01% TritonX-100; one-site total binding model
Cbx7.V1 back-mutant D8E = target: T1, Cbx7.V1 back-mutant D8E; test: BLI; biotinylated peptide on streptavidin biosensor tips, chromodomain in solution at 5 or 1 µM; 25 °C; 25 mM HEPES pH 7.0, 150 mM NaCl, 1 mg/ml BSA, 0.01% Tween-20; steady-state fit, Langmuir model; values of single replicates
Cbx7.V1 back-mutant L37P = target: T2, Cbx7.V1 back-mutant L37P; test: as above
Cbx7.V1 back-mutant D9Q = target: T3, Cbx7.V1 back-mutant D9Q; test: as above
Cbx7.V1 back-mutant E38K = target: T4, Cbx7.V1 back-mutant E38K; test: as above
[2] = target: T5, Cbx7.V1 chromodomain variant (protein …); test: as above
Cbx7.V1 back-mutant I10V = target: T6, Cbx7.V1 back-mutant I10V; test: as above
[3] = target: T14, wild-type Cbx5 chromodomain (tags removed) (human, UniProt P45973 18-75); test: fluorescence polarisation; 0.5 nM FITC-labelled peptide; chromodomains 200-0.2 µM (wild type) or 50 µM-50 nM (Cbx7.V1 and all Cbx.VDs); 30 min at 25 °C; 25 mM HEPES pH 7.5, 150 mM NaCl, 1 mM DTT, 0.01% TritonX-100; one-site total binding model
T14 construct: chromodomain of human Cbx5; also called Cbx5.wt; source: E. coli BL21(DE3), purified (Ni-NTA; tags removed with TEV protease)

[4] = target: T15, wild-type Cbx1 chromodomain (tags removed) (human, UniProt P83916 20-73); test: as above
T15 construct: chromodomain of human Cbx1; also called Cbx1.wt; source: E. coli BL21(DE3), purified (Ni-NTA; tags removed with TEV protease)

[5] = target: T7, wild-type Cbx2 chromodomain (tags …); test: as above
[6] = target: T16, wild-type Cbx3 chromodomain (tags removed) (human, UniProt Q13185 29-86); test: as above
T16 construct: chromodomain of human Cbx3; also called Cbx3.wt; source: E. coli BL21(DE3), purified (Ni-NTA; tags removed with TEV protease)

[7] = target: T8, wild-type Cbx8 chromodomain (tags …); test: as above
[8] = target: T9, wild-type Cbx7 chromodomain (tags …); test: as above
[9] = target: T10, Cbx7 Q9D chromodomain (tags removed); test: as above
[10] = target: T11, Cbx7 K33E chromodomain (tags removed); test: as above
[11] = target: T12, Cbx7.VD chromodomain, Q9D/K33E (tags …); test: as above
[12] = target: T13, Cbx7.V1 (tags removed, used for FP and …); test: as above

T14 sequence (P45973 18-75, looked up): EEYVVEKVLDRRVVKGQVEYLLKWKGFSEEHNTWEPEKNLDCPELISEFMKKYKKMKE
T15 sequence (P83916 20-73, looked up): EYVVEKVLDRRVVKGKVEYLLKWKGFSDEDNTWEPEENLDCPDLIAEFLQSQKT
T16 sequence (Q13185 29-86, looked up): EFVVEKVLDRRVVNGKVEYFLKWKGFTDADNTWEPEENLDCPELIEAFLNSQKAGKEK

Binder: B1
Kd [1]: > 50000 nM

Binder: B2
Kd (Cbx7.V1 back-mutant D8E): 1900 nM and 2200 nM | Kd (Cbx7.V1 back-mutant L37P): 2800 nM and 2200 nM | Kd (Cbx7.V1 back-mutant D9Q): 1600 nM and 2700 nM | Kd (Cbx7.V1 back-mutant E38K): 1500 nM and 1700 nM | Kd [2]: 2000 nM and 2200 nM | Kd (Cbx7.V1 back-mutant I10V): 2800 nM and 1600 nM

Binder: B3
Kd [3]: 5000 nM | Kd [4]: 500 nM | Kd [5]: > 200000 nM | Kd [6]: 2000 nM | Kd [7]: > 200000 nM | Kd [8]: 30000 nM | Kd [9]: 10000 nM | Kd [10]: 20000 nM | Kd [11]: 8000 nM | Kd [12]: 7000 nM
